One block for each molecule: values may come before it.
Legend:
[1] = Microtiter hyaluronidase activity assay with biotinylated-hyaluronic acid; type: biochemical; conditions: Table 6, 72 hour post transfection supernatant
Protocol: In Example 4, the hyaluronidase activity of truncated human PH20 hyaluronidase is determined using biotinylated hyaluronic acid. The free carboxyl groups on the glucuronic acid residues of hyaluronic acid are biotinylated, and the biotinylated hyaluronic acid substrate is covalently coupled to a microtiter plate. Following incubation with hyaluronidase, the residual biotinylated hyaluronic acid substrate is detected using an avidin-peroxidase reaction, and compared to that obtained following reaction with hyaluronidase standards of known activity. […] The sensitivity permits rapid measurement of hyaluronidase activity from cultured cells and biological samples with an inter-assay variation of less than 10%.
In this example, the human PH20 hyaluronidase carboxy-terminus deletion mutants were tested for their PH20 hyaluronidase activity using a microtiter assay with biotinylated-hyaluronic acid (biotinylated-HA or bHA). The human PH20 hyaluronidase carboxy-terminus deletion mutants were tested for hyaluronidase activity at both pH 7.4 and pH 5.5.
In short, a 4×BH 96-well plate was coated with biotinylated-HA (1.1 MDa). The 72 hour post transfection supernatant from cells transfected with human PH20 hyaluronidase carboxy-terminus deletion mutants was diluted in buffer at either pH 7.4 or pH 5.5 and added to individual wells of the plate and allowed to incubate at 37° C. for 90 minutes. The reaction was terminated by addition of 4M guanidine HCl. The wells were washed 4× with Phosphate Buffered Saline with Tween20 (PBST) to remove any digested biotinylated-HA followed by addition of streptavidin-HRP for 1 hour at room temperature. The wells were washed 4× with PBST and the plate was developed with TMB. The plate was read at 450 nm using an ELISA plate reader. Hyaluronidase activity (in Units/mL) was determined by interpolating the measured absorbance at 450 nm with a hyaluronidase reference standard curve. Full length mature human PH20 hyaluronidase and untransfected CHO cells were used as positive and negative controls.

CHO-S cells = experiment: Western blot analysis of PH20 expression in media and cells after transient expression; type: cell-based, Chinese Hamster; conditions: media versus cells
Protocol: The mutant PH20-HZ24 plasmids generated in Example 1 were transiently […] into CHO—S cells (derived from Chinese Hamster Ovary CHO K1 cells) using GeneJuice® (Novagen) according to the manufacturer's instructions. In short, the CHO—S cells were grown in CD CHO medium supplemented with L-glutamine. Prior to transfection, the CHO—S cells were plated in 6-well plates, with approximately 5×10^5 cells per well, and grown overnight at 37° C. with 5% CO2. The medium was then removed and the CHO—S cells were washed 2 times with 1 mL serum-free medium. GeneJuice® was mixed with serum-free media followed by the addition of 2 μg mutant-HZ24 DNA. After incubating at room temperature for 5-15 minutes, the GeneJuice®/DNA mixture was added dropwise to an individual well containing the washed CHO—S cells. After 4 hours, the medium was replaced with 1 mL CD-CHO medium supplemented with L-glutamine and the cells were incubated for 72 hours at 37° C. with 5% CO2. Following expression, the media and cells were harvested separately.
The mutant PH20-HZ24 plasmids generated in Example 1 were transiently […] into CHO—S cells using GeneJuice® (Novagen) according to the manufacturer's instructions. […]
In this example, following transient expression, as described in Example 2 above, the media and cells were harvested separately and analyzed for PH20 expression and solublility by Western blot analysis. Solubility of the C-terminus truncation mutants was determined by examining whether the expressed protein was present in the growth media or in the cells. […] Cells expressing these mutants were treated with phosphoinositol-phospholipase C (PI-PLC), which cleaves the GPI-anchor allowing the release of soluble protein into the media, and the presence of PH20 in the resulting media and cells was determined by Western blot analysis.
Non-reduced samples were run on a 4-20% Tris-Glycine gel and transferred to PVDF membrane using iBlot (Invitrogen). For the Western blot, rabbit anti-PH20 IgG (0.5 μg/mL) was used as the primary antibody and HRP-conjugated goat anti-rabbit IgG (0.1 ng/mL, Cat#DC03L, EMD) was used as the secondary antibody. Evidence of expression is determined by a band at approximately 66 kDa, corresponding to recombinant human PH20 hyaluronidase.

pH 5.5 Activity [1]: 0.045 Units/ml
pH 7.4 Activity [1]: 0 Units/ml
B1: SPAM1-DGVC: C-terminally truncated human PH20, precursor 464 aa (SEQ ID NO:36), mature 429 aa (SEQ ID NO:88) (protein, listed as Homo sapiens)
chain 1: MGVLKFKHIFFRSFVKSSGVSQIVFTFLLIPCCLTLNFRAPPVIPNVPFLWAWNAPSEFCLGKFDEPLDMSLFSFIGSPRINATGQGVTIFYVDRLGYYPYIDSITGVTVNGGIPQKISLQDHLDKAKKDITFYMPVDNLGMAVIDWEEWRPTWARNWKPKDVYKNRSIELVQQQNVQLSLTEATEKAKQEFEKAGKDFLVETIKLGKLLRPNHLWGYYLFPDCYNHHYKKPGYNGSCFNVEIKRNDDLSWLWNESTALYPSIYLNTQQSPVAATLYVRNRVREAIRVSKIPDAKSPLPVFAYTRIVFTDQVLKFLSQDELVYTFGETVALGASGIVIWGTLSIMRSMKSCLLLDNYMETILNPYIINVTLAAKMCSQVLCQEQGVCIRKNWNSSDYLHLNPDNFAIQLEKGGKFTVRGKPTLEDLEQFSEKFYCSCYSTLSCKEKADVKDTDAVDVCIADGVC
chain 2: LNFRAPPVIPNVPFLWAWNAPSEFCLGKFDEPLDMSLFSFIGSPRINATGQGVTIFYVDRLGYYPYIDSITGVTVNGGIPQKISLQDHLDKAKKDITFYMPVDNLGMAVIDWEEWRPTWARNWKPKDVYKNRSIELVQQQNVQLSLTEATEKAKQEFEKAGKDFLVETIKLGKLLRPNHLWGYYLFPDCYNHHYKKPGYNGSCFNVEIKRNDDLSWLWNESTALYPSIYLNTQQSPVAATLYVRNRVREAIRVSKIPDAKSPLPVFAYTRIVFTDQVLKFLSQDELVYTFGETVALGASGIVIWGTLSIMRSMKSCLLLDNYMETILNPYIINVTLAAKMCSQVLCQEQGVCIRKNWNSSDYLHLNPDNFAIQLEKGGKFTVRGKPTLEDLEQFSEKFYCSCYSTLSCKEKADVKDTDAVDVCIADGVC
modifications: HuPH20 precursor 1-464; Mature HuPH20 36-464
Expressed in Media (CHO-S cells): YES

pH 5.5 Activity [1]: 0.00225 Units/ml
pH 7.4 Activity [1]: 0 Units/ml
B2: SPAM1-IADG: C-terminally truncated human PH20, precursor 462 aa (SEQ ID NO:37), mature 427 aa (SEQ ID NO:89) (protein, listed as Homo sapiens)
chain 1: MGVLKFKHIFFRSFVKSSGVSQIVFTFLLIPCCLTLNFRAPPVIPNVPFLWAWNAPSEFCLGKFDEPLDMSLFSFIGSPRINATGQGVTIFYVDRLGYYPYIDSITGVTVNGGIPQKISLQDHLDKAKKDITFYMPVDNLGMAVIDWEEWRPTWARNWKPKDVYKNRSIELVQQQNVQLSLTEATEKAKQEFEKAGKDFLVETIKLGKLLRPNHLWGYYLFPDCYNHHYKKPGYNGSCFNVEIKRNDDLSWLWNESTALYPSIYLNTQQSPVAATLYVRNRVREAIRVSKIPDAKSPLPVFAYTRIVFTDQVLKFLSQDELVYTFGETVALGASGIVIWGTLSIMRSMKSCLLLDNYMETILNPYIINVTLAAKMCSQVLCQEQGVCIRKNWNSSDYLHLNPDNFAIQLEKGGKFTVRGKPTLEDLEQFSEKFYCSCYSTLSCKEKADVKDTDAVDVCIADG
chain 2: LNFRAPPVIPNVPFLWAWNAPSEFCLGKFDEPLDMSLFSFIGSPRINATGQGVTIFYVDRLGYYPYIDSITGVTVNGGIPQKISLQDHLDKAKKDITFYMPVDNLGMAVIDWEEWRPTWARNWKPKDVYKNRSIELVQQQNVQLSLTEATEKAKQEFEKAGKDFLVETIKLGKLLRPNHLWGYYLFPDCYNHHYKKPGYNGSCFNVEIKRNDDLSWLWNESTALYPSIYLNTQQSPVAATLYVRNRVREAIRVSKIPDAKSPLPVFAYTRIVFTDQVLKFLSQDELVYTFGETVALGASGIVIWGTLSIMRSMKSCLLLDNYMETILNPYIINVTLAAKMCSQVLCQEQGVCIRKNWNSSDYLHLNPDNFAIQLEKGGKFTVRGKPTLEDLEQFSEKFYCSCYSTLSCKEKADVKDTDAVDVCIADG
modifications: HuPH20 precursor 1-462; Mature HuPH20 36-462
Expressed in Media (CHO-S cells): YES

pH 5.5 Activity [1]: 0.468 Units/ml
pH 7.4 Activity [1]: 0.441 Units/ml
B3: SPAM1-GVCI: C-terminally truncated human PH20, precursor 465 aa (SEQ ID NO:35), mature 430 aa (SEQ ID NO:87) (protein, listed as Homo sapiens)
chain 1: MGVLKFKHIFFRSFVKSSGVSQIVFTFLLIPCCLTLNFRAPPVIPNVPFLWAWNAPSEFCLGKFDEPLDMSLFSFIGSPRINATGQGVTIFYVDRLGYYPYIDSITGVTVNGGIPQKISLQDHLDKAKKDITFYMPVDNLGMAVIDWEEWRPTWARNWKPKDVYKNRSIELVQQQNVQLSLTEATEKAKQEFEKAGKDFLVETIKLGKLLRPNHLWGYYLFPDCYNHHYKKPGYNGSCFNVEIKRNDDLSWLWNESTALYPSIYLNTQQSPVAATLYVRNRVREAIRVSKIPDAKSPLPVFAYTRIVFTDQVLKFLSQDELVYTFGETVALGASGIVIWGTLSIMRSMKSCLLLDNYMETILNPYIINVTLAAKMCSQVLCQEQGVCIRKNWNSSDYLHLNPDNFAIQLEKGGKFTVRGKPTLEDLEQFSEKFYCSCYSTLSCKEKADVKDTDAVDVCIADGVCI
chain 2: LNFRAPPVIPNVPFLWAWNAPSEFCLGKFDEPLDMSLFSFIGSPRINATGQGVTIFYVDRLGYYPYIDSITGVTVNGGIPQKISLQDHLDKAKKDITFYMPVDNLGMAVIDWEEWRPTWARNWKPKDVYKNRSIELVQQQNVQLSLTEATEKAKQEFEKAGKDFLVETIKLGKLLRPNHLWGYYLFPDCYNHHYKKPGYNGSCFNVEIKRNDDLSWLWNESTALYPSIYLNTQQSPVAATLYVRNRVREAIRVSKIPDAKSPLPVFAYTRIVFTDQVLKFLSQDELVYTFGETVALGASGIVIWGTLSIMRSMKSCLLLDNYMETILNPYIINVTLAAKMCSQVLCQEQGVCIRKNWNSSDYLHLNPDNFAIQLEKGGKFTVRGKPTLEDLEQFSEKFYCSCYSTLSCKEKADVKDTDAVDVCIADGVCI
modifications: HuPH20 precursor 1-465; Mature HuPH20 36-465
Expressed in Media (CHO-S cells): YES

pH 5.5 Activity [1]: 0.0135 Units/ml
pH 7.4 Activity [1]: 0 Units/ml
B4: SPAM1-VCIA: C-terminally truncated human PH20, precursor 460 aa (SEQ ID NO:38), mature 425 aa (SEQ ID NO:90) (protein, listed as Homo sapiens)
chain 1: MGVLKFKHIFFRSFVKSSGVSQIVFTFLLIPCCLTLNFRAPPVIPNVPFLWAWNAPSEFCLGKFDEPLDMSLFSFIGSPRINATGQGVTIFYVDRLGYYPYIDSITGVTVNGGIPQKISLQDHLDKAKKDITFYMPVDNLGMAVIDWEEWRPTWARNWKPKDVYKNRSIELVQQQNVQLSLTEATEKAKQEFEKAGKDFLVETIKLGKLLRPNHLWGYYLFPDCYNHHYKKPGYNGSCFNVEIKRNDDLSWLWNESTALYPSIYLNTQQSPVAATLYVRNRVREAIRVSKIPDAKSPLPVFAYTRIVFTDQVLKFLSQDELVYTFGETVALGASGIVIWGTLSIMRSMKSCLLLDNYMETILNPYIINVTLAAKMCSQVLCQEQGVCIRKNWNSSDYLHLNPDNFAIQLEKGGKFTVRGKPTLEDLEQFSEKFYCSCYSTLSCKEKADVKDTDAVDVCIA
chain 2: LNFRAPPVIPNVPFLWAWNAPSEFCLGKFDEPLDMSLFSFIGSPRINATGQGVTIFYVDRLGYYPYIDSITGVTVNGGIPQKISLQDHLDKAKKDITFYMPVDNLGMAVIDWEEWRPTWARNWKPKDVYKNRSIELVQQQNVQLSLTEATEKAKQEFEKAGKDFLVETIKLGKLLRPNHLWGYYLFPDCYNHHYKKPGYNGSCFNVEIKRNDDLSWLWNESTALYPSIYLNTQQSPVAATLYVRNRVREAIRVSKIPDAKSPLPVFAYTRIVFTDQVLKFLSQDELVYTFGETVALGASGIVIWGTLSIMRSMKSCLLLDNYMETILNPYIINVTLAAKMCSQVLCQEQGVCIRKNWNSSDYLHLNPDNFAIQLEKGGKFTVRGKPTLEDLEQFSEKFYCSCYSTLSCKEKADVKDTDAVDVCIA
modifications: HuPH20 precursor 1-460; Mature HuPH20 36-460
Expressed in Media (CHO-S cells): YES
